According to article PMC6599559 (2019):

Target: eEF-2 (Homo sapiens, UniProt P13639)
Assay: kinase inhibition assay

- Ki: ~9 µM
B1: eEF-2K 562-725 (protein)
chain: GELEAIVGLGLMYSQLPHHILADVSLKETEENKTKGFDYLLKAAEAGDRQSMILVARAFDSGQNLSPDRCQDWLEALHWYNTALEMTDCDEGGEYDGMQDEPRYMMLAREAEMLFTGGYGLEKDPQRSGDLYTQAAEAAMEAMKGRLANQYYQKAEEAWAQMEE
